The values below are quoted from earlier work in article PMC9897510.

One may read the Kd as a measure of binding affinity in units of concentration. One may read the Ki as a measure of affinity in units of concentration, obtained from inhibition or displacement.

Some targets named below: FhuA (Escherichia coli) (UniProt P06971); FOXM1b (Homo sapiens) (UniProt Q08050); FOXM1c (Homo sapiens) (UniProt Q08050).
For data set [1], the target named is atrial natriuretic factor receptor (UniProt P16066).
UniProt P16066, sequence (P16066 33-1061): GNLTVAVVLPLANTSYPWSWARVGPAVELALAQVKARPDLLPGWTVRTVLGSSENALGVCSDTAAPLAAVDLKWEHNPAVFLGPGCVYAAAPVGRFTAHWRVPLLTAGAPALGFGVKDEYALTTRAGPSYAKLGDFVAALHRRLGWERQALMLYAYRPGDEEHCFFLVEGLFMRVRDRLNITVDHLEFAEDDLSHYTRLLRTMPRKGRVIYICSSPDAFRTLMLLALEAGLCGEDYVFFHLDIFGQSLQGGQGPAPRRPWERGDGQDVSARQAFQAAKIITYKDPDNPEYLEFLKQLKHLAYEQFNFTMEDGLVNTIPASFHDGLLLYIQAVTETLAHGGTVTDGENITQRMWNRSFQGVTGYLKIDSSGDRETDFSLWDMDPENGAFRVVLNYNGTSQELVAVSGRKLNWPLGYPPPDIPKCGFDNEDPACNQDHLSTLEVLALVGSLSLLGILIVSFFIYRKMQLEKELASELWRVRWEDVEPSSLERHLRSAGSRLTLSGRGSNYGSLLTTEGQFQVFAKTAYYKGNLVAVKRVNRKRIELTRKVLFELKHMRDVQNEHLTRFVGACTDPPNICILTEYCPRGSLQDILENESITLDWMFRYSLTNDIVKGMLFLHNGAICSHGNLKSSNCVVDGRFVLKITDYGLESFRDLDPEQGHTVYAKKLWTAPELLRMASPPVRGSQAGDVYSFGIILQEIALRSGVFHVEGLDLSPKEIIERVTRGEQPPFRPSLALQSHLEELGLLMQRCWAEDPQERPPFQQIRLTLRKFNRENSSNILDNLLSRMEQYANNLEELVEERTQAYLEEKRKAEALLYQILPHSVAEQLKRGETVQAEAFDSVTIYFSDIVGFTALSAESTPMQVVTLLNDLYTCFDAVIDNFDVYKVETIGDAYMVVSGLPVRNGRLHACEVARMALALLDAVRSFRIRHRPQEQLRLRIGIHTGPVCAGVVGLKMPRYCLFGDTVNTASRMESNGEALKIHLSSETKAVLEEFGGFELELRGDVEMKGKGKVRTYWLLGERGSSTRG

UniProt P06971, sequence (P06971 34-747): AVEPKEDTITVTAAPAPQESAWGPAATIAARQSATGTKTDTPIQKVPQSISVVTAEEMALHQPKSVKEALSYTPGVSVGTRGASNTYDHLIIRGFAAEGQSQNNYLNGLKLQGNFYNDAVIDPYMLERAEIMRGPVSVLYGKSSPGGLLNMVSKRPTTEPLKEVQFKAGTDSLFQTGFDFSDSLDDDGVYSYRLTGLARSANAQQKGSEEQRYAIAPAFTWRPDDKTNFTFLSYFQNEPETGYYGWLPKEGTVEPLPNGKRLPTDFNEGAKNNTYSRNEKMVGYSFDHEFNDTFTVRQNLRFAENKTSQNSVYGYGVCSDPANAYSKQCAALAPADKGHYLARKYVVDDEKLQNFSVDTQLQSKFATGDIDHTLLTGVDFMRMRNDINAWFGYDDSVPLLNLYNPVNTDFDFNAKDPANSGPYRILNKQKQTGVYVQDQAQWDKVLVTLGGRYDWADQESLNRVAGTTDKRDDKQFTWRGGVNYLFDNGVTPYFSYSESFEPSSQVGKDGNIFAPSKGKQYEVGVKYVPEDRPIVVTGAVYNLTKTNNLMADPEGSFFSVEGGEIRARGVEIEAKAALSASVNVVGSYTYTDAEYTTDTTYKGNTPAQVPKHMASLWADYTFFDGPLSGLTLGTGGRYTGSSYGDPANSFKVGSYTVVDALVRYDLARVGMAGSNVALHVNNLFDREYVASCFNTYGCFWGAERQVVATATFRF

For Microcin J25 (from UniProt Q9X2V7), the Kd with FhuA (Escherichia coli) was 1.2 µM. With anantin (from UniProt Q7M0J9), in data set [1], the Kd is 0.6 µM.

As for thiostrepton (from UniProt P0C8P8), the Ki was 31 µM in the data set with FOXM1b (Homo sapiens) and 11 µM with FOXM1c (Homo sapiens).
